# EP4063497B1
# B1: anti-IMP-type carbapenemase antibody AH9 (antibody, V domains shown)
# VH: VKLQQSGAELVKPGASVKISCKASGYTFTDYNMDWVKQSHGKSLEWIGDINPNYDSTRYNQKFKGKATLTVDKSSSTAYMELRSLTSEDTAVYYCARDGRYAMDYWGQGTSVTVSS
# VL: DIVMTQSPSSLSVSAGEKVTLTCKSSQSLLNSGHQKNYLAWYQQKPGQPPKLLIYGASTRKSGIPDRFTGSGSGTDFTLTISSVQAEDLAVYYCQNDHRYPLTFGAGTKLELKR
# B2: anti-IMP-type carbapenemase antibody 1AA4 (antibody, V domains shown)
# VH: VQLVVSGGGLVNPDGSLKLSCAASGFTFSDYYMYWVRQTPEKRLEWVAIISDGGSYTYYPDSVKGRFTISRDNAKNNLYLQMSGLRSEDTAMYYCVRGSFDVWGAGTTVTVSA
# VL: DIVMTQSPLTLSVTLGQPASISCRSSQSLLDSGGKTYLNWFLQRPGQSPKRLIYLVSKLDSGVPDRFTGSGSGTDFTLRISRVEAEDLGIYYCFQYTHFPQCTFGGGTTLEIKR
# Target: IMP-4-type carbapenemase
# Assay: indirect ELISA, plate coated with IMP-4-type carbapenemase at 0.2 ug/mL, purified antibody serially diluted from 1:1,000
# Conditions: scale: dilution factor
row,Binder,titer
1,B1,> 640000
2,B2,> 640000
